{
  "source": "patent US20040137592",
  "key": {"[1]": {"tested_on": "hUpf1/SMG-2 fusion protein (S1096) [GST: P08515]"}, "[2]": {"tested_on": "GST fusion protein including S1078 (14mer peptide of hUpf1/SMG-2) [GST: P08515]"}, "HA tagged hUpf1/SMG-2": {"target": "HA tagged hUpf1/SMG-2 (UniProt Q92900)"}, "[3]": {"target": "MBP fusion protein of the hUpf1/SMG-2 partial fragment at the N-terminal side (UniProt Q92900)"}, "[4]": {"target": "MBP fusion protein of the hUpf1/SMG-2 partial fragment at the C-terminal side (UniProt Q92900)"}, "[5]": {"tested_on": "fusion protein of the 14mer peptide (control) including S15 in the p53 protein and GST [GST: P08515]"}},
  "data": [
    {"substance": "6H-hSMG-1 (fusion protein of human SMG-1 partial fragment 107-3657 and His tag)", "values": [
      {"measurement": "phosphorylation of substrate (in vitro kinase assay, 32P autoradiography)", "setting": "[1]", "result": "the GST fusion protein including S1078 or the GST fusion protein including S1096 ... was efficiently phosphorylated by 6H-hSMG-1"},
      {"measurement": "phosphorylation of substrate (in vitro kinase assay, 32P autoradiography)", "setting": "[2]", "result": "the GST fusion protein including S1078 or the GST fusion protein including S1096 ... was efficiently phosphorylated by 6H-hSMG-1"},
      {"measurement": "phosphorylation of substrate (in vitro kinase assay, 32P autoradiography)", "setting": "HA tagged hUpf1/SMG-2", "result": "purified 6H-hSMG-1 phosphorylated HA-hUpf1/SMG-2"},
      {"measurement": "phosphorylation of substrate (in vitro kinase assay, 32P autoradiography)", "setting": "[3]", "result": "the fragments of hUpf1/SMG-2 at the C-terminal side and at the N-terminal side performed the role of good substrates for hSMG-1"},
      {"measurement": "phosphorylation of substrate (in vitro kinase assay, 32P autoradiography)", "setting": "[4]", "result": "the fragments of hUpf1/SMG-2 at the C-terminal side and at the N-terminal side performed the role of good substrates for hSMG-1"},
      {"measurement": "phosphorylation of substrate (in vitro kinase assay, 32P autoradiography)", "setting": "[5]", "result": "the control construct encoding the SQ motif in the p53 protein was phosphorylated by hSMG-1"}
    ]}
  ]
}
